Among the data in US20110064746A1 (published 2011) are Kd values, retold here.

As a reminder, the Kd is the free concentration of one partner at which half of the binding sites on the other are occupied at equilibrium, for simple one-to-one binding.

This assay addresses T1, recombinant HMGB-1 (Homo sapiens (Human), UniProt P09429 1-215).
T1 construct: also called recombinant HMGB1 protein; recombinant HMGB-1 obtained from R&D system
T1 sequence: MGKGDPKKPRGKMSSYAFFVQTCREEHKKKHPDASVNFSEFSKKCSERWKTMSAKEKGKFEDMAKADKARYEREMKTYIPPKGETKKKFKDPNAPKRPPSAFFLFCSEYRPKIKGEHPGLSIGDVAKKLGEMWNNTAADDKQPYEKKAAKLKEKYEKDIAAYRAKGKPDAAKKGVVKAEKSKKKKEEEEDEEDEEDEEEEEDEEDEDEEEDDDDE
The assay is described as follows: SPR, BIACORE3000. On the technique in general: In SPR one partner is held on a chip, and binding of the other changes the refractive index at the surface.

B1: anti-HMGB-1 mAb 3B1 (antibody, V domains shown)
VH: QVQLQQPGAELVKPGASVKLSCKASGYTFTSYWMHWVKQRPGQGLEWIGNIDPSDSETHYNQKFKDKATLTVDKSSSTAYMQLNSLTSEDSAVYYCAKRGYYGYDYWGQGTTLTV
VL: DVLMTQTPLSLPVSLGDQASISCRSSQSIVHSNGNTYLEWYLQKAGQSPKLLIYKVSNRFSGVPDRFSGSGSGTDFTLKISRVEAEDLGVYYCFQGAHVPRTFGGGTKLEIK
Consider B1, for which the Kd is 7.8 nM.

B2: anti-HMGB-1 mAb 3E8 (antibody, V domains shown)
VH: QVQLQQSGPELVKPGASVKISCKASGYAFSNYWMNWVKQRPGKGLEWIGRIYPGDGDMAYNGKFRGKATLTADKSSSTAYMQLSSLTSEDSAVYFCARSLDGYVGYVMDYWGQGTSVTVSS
VL: DIVMTQAAPSVPVTPGESVSISCRSSKSLLHRNGNIFLYWFLQRPGQSPQLLIYRMSNLASGVPDRFSGSGSGTAFTLRISRVETEDVGVYYCMQHLEYPFTFGSGTKLEIK
Consider B2, for which the Kd was determined as 1.3 nM.
